The source of these data is publication PMC5042576.

The assay has as its target Actin filaments decorated with Tpm3.1 (chicken | human) (UniProt P68139).

Chain of Mouse melanophilin with N-terminal SNAP tag and C-terminal Flag tag (Q91V27 whole entry): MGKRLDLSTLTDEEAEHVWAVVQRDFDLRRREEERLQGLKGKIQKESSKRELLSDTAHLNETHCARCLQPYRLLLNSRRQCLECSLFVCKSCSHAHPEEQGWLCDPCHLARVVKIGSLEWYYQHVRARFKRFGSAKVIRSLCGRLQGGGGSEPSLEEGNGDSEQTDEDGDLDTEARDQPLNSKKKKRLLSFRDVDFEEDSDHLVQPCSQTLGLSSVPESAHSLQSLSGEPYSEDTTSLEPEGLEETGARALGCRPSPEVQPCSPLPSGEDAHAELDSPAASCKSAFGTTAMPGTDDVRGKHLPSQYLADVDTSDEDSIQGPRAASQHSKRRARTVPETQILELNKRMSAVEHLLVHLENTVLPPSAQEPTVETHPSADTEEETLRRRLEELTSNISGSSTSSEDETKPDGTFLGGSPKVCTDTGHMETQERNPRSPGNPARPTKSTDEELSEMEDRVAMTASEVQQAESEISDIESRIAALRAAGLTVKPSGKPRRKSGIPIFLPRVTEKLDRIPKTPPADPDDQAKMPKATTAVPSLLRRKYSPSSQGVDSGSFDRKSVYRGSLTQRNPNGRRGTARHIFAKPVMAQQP

In the case of “Mouse melanophilin with N-terminal SNAP tag and C-terminal Flag tag (from UniProt Q91V27 1-590) (natural protein)”, the fold affinity against actin–Tpm1.8 and actin–Tpm4.2 worked out at 2 fold.
